Experimental data: publication PMC10807245, “A functional and structural comparative analysis of large tumor antigens reveals evolution of different importin α‐dependent nuclear localization signals” (Protein Science : A Publication of the Protein Society, 2024)
Primed or numbered codes have the meaning given here. Where no end group is shown, it is not given here. FITC′ = fluorescein isothiocyanate; Ahx = NCCCCCC(=O)O

T1: human importin α3 lacking the IBB domain (IMPα3ΔIBB) (human, UniProt O00629 64-521)
T1 sequence (looked up): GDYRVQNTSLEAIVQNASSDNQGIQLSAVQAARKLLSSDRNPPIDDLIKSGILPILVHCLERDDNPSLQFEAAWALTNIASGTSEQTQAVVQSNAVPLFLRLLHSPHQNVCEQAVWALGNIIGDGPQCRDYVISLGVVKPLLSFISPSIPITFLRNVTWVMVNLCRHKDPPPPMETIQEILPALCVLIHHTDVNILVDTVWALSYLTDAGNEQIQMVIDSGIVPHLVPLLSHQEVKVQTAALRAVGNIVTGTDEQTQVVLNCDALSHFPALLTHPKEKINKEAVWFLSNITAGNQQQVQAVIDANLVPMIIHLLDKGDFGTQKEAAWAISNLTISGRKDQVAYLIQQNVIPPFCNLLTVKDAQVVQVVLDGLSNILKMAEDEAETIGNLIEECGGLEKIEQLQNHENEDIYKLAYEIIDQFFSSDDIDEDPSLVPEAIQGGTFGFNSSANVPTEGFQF

B1: JCPyV LTA NLS peptide (peptide)
peptide: {FITC′-Ahx}-MFASDDENTGSQHSTPPKKKKKV
notes: also called JCPyV LTA cNLS; JCPyV LTA monopartite cNLS
B2: MWPyV LTA NLSbip peptide (peptide)
peptide: {FITC′-Ahx}-PKKRPRESSSNSTCTPPKRPRNF
notes: also called MWPyV LTA cNLS; MWPyV LTA bipartite cNLS
B3: STLPyV LTA NLSbip peptide (peptide)
peptide: {FITC′-Ahx}-KRKFPDSSTQNSTPPKKNKPA
notes: also called STLPyV LTA cNLS; STLPyV LTA bipartite cNLS
B4: WUPyV LTA NLSbip peptide (peptide)
peptide: {FITC′-Ahx}-KRTREDDEEPQCSQATPPKKKKD
notes: also called WUPyV LTA cNLS; WUPyV LTA bipartite cNLS
B5: KIPyV LTA NLSbip peptide (peptide)
peptide: {FITC′-Ahx}-KRSAPEEEPSCSQATPPKKKHA
notes: also called KIPyV LTA cNLS; KIPyV LTA bipartite cNLS
B6: MCPyV LTA NLSbip peptide (peptide)
peptide: {FITC′-Ahx}-PFSRKRKFGGSRSSASSASSASFTSTPPKPKKNRE
notes: also called MCPyV LTA cNLS; bipartite MCPyV LTA NLS; source: synthetic peptide (solid phase, HPLC purified)

Key:
Conditions in all cases: both partners purified
[1] = molecular target: T2, mouse importin α2 lacking the IBB domain (IMPα2ΔIBB) (mouse, UniProt P52293 70-529); assay: crystal structure
[2] = molecular target: T1, human importin α3 lacking the IBB …; assay: native gel or EMSA; 1.5% agarose gel in TB buffer (0.45 mM tris, 0.45 mM boric acid, pH 8.5), 70 V for 2 h; IMPαΔIBB ± FITC-cNLS peptide; UV image for the peptide, Coomassie for the protein
[3] = molecular target: human importin α5 lacking the IBB domain (IMPα5ΔIBB) (human, UniProt P52294 73-538); assay: as above
[4] = molecular target: human importin α7 lacking the IBB domain (IMPα7ΔIBB) (human, UniProt O60684 73-536); assay: as above
[5] = molecular target: T3, human importin α1 lacking the IBB domain (IMPα1ΔIBB) (human, UniProt P52292 70-529); assay: fluorescence polarisation; two-fold dilutions of IMPαΔIBB titrated against FITC-cNLS peptide in tris-buffered saline, 200 μL; one site specific binding fit; triplicate
[6] = molecular target: T3, human importin α1 lacking the IBB …; assay: native gel or EMSA; 1.5% agarose gel in TB buffer (0.45 mM tris, 0.45 mM boric acid, pH 8.5), 70 V for 2 h; IMPαΔIBB ± FITC-cNLS peptide; UV image for the peptide, Coomassie for the protein
[7] = molecular target: T2, mouse importin α2 lacking the IBB …; assay: as above

Sequence of human importin α5 lacking the IBB domain (IMPα5ΔIBB) (P52294 73-538, stated change not applied): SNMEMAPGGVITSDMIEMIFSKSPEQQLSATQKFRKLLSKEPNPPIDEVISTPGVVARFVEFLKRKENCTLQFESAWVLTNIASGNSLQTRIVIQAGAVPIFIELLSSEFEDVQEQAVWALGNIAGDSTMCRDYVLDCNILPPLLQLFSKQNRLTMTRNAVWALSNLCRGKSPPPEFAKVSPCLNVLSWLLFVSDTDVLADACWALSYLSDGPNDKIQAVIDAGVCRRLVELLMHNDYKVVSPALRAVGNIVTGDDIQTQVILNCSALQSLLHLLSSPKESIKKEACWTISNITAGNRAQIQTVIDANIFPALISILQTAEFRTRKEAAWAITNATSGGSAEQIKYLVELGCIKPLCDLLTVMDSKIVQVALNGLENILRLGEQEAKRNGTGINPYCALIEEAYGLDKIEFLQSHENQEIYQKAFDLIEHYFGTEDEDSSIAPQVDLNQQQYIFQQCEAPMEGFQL
Sequence of human importin α7 lacking the IBB domain (IMPα7ΔIBB) (O60684 73-536, stated change not applied): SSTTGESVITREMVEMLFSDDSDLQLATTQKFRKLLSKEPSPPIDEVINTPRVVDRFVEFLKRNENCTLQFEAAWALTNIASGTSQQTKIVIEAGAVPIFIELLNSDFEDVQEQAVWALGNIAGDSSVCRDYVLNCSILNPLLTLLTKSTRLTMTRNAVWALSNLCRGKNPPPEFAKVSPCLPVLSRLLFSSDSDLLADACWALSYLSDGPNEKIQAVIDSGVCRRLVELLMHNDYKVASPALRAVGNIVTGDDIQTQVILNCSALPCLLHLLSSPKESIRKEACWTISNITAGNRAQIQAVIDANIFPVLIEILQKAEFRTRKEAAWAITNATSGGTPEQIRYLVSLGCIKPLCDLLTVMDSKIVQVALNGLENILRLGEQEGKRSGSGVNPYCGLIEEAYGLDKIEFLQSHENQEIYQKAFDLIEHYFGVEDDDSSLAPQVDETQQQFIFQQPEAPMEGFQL

Binder	binding result [1]	binding result [2]	binding result [3]	binding result [4]	Kd [5] [nM]	binding result [6]	binding result [7]
B1	binds	binds	binds	binds	76 to 270		
B2		binds	binds	binds		binds	binds
B3		binds	binds	binds		binds	binds
B4		binds	binds	binds		binds	binds
B5		binds	binds	binds		binds	binds
B6		binds	binds	binds		binds	binds
{FITC′}-PFSRKRKFGGS [MCPyV LTA NLSm peptide]							binds
